Measured values as given in patent publication JP2023550785A (dated 2023).

Key:
[1] = biological target: SARS-CoV (Urbani strain) prefusion-stabilized spike (S) protein / S ectodomain trimer (SARS-CoV (Urbani strain), UniProt P59594 14-1195); assay: SPR (Biacore T200), S ectodomain trimer captured, Fab as analyte
[2] = biological target: T1, HCoV-HKU1 prefusion-stabilized spike (S) protein / S ectodomain trimer (human coronavirus HKU1, UniProt Q5MQD0 13-1300)
T1 sequence: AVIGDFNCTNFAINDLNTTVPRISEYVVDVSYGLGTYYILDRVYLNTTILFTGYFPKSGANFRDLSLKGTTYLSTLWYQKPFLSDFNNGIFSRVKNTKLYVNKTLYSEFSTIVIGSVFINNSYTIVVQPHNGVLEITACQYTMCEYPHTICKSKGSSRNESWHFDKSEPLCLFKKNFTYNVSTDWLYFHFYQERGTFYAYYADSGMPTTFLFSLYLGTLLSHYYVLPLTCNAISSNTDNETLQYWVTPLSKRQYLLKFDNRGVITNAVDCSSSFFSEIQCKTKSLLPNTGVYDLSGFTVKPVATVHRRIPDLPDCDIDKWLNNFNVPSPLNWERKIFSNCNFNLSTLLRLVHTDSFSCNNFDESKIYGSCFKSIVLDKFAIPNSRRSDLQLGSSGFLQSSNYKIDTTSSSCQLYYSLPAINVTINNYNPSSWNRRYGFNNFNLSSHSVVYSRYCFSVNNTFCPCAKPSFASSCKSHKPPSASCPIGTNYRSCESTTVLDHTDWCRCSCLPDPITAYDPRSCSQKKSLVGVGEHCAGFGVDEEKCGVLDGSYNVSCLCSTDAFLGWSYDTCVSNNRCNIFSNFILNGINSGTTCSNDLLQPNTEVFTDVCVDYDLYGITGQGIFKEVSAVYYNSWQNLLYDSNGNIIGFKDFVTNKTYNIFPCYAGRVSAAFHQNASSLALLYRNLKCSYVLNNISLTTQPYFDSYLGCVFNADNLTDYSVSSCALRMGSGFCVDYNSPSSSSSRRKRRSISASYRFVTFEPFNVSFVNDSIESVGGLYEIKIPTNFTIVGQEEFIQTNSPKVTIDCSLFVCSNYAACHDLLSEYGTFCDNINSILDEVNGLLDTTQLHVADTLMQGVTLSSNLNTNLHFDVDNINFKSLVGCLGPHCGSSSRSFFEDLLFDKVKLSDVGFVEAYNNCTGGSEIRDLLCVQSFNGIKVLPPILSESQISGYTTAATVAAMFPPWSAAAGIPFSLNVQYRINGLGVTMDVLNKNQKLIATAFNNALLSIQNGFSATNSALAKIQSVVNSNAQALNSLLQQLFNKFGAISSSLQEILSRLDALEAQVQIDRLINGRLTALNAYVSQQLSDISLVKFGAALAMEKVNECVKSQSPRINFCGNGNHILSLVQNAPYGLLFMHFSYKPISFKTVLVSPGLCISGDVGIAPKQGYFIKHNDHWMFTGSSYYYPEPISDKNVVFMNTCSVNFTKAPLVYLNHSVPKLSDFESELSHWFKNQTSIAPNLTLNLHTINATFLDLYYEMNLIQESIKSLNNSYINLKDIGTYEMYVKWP

[3] = biological target: T2, MERS-CoV (London1/2012) prefusion-stabilized spike (S) protein / S ectodomain trimer (MERS-CoV (London1/2012), UniProt K9N5Q8 18-1296)
T2 sequence: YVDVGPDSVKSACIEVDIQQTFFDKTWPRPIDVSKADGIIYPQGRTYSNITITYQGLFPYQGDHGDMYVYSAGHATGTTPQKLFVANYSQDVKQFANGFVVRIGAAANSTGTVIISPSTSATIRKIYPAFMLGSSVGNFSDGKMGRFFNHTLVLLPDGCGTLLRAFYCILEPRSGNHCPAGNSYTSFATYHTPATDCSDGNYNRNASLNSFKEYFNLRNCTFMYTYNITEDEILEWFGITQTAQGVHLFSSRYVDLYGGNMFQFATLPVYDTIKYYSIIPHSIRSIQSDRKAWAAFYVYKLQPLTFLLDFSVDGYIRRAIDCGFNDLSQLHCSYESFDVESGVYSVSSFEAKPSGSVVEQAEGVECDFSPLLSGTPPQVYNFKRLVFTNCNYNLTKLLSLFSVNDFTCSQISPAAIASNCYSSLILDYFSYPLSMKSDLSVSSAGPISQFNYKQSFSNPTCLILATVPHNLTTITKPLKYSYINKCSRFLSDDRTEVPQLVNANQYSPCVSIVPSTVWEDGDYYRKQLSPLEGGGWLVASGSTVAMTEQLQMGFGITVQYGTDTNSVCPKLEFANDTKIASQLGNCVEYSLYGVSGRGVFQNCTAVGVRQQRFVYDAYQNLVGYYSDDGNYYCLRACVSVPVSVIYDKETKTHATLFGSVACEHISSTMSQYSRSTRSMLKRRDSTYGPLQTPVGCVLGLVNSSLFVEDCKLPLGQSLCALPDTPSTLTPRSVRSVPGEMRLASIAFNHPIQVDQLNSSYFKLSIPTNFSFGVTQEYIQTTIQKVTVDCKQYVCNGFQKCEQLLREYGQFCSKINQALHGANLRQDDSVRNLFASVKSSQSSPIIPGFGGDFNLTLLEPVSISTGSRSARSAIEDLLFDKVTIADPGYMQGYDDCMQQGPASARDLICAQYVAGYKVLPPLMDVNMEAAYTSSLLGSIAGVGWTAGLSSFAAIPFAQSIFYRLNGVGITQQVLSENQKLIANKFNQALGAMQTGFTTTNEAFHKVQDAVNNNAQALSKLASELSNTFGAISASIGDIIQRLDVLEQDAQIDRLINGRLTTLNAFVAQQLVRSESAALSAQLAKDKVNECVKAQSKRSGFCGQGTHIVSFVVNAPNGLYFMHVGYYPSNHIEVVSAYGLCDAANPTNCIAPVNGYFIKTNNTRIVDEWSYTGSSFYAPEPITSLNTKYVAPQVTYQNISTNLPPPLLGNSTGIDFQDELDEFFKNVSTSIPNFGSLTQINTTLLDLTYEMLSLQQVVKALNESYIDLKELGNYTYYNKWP

B1: S2P6 Fab fragment (Fab, V domains shown)
VH: EVQLVQSGAEVKKPGASVKVSCKASGYTFTSQYMHWVRQAPGQGLEWIGIINPSGVHTSYAQKFQGRVTLTRDTSTSTLYMELSSLRSEDTAVYYCARGSPKGAFDYWGQGTLVTVSS
VL: not shown
- Kd [1]: 7 nM
- Kd [2]: ~120 nM
- Kd [3]: 12 nM
